Measurements from article PMC2648964, “Molecular Basis for the Sorting of the SNARE VAMP7 into Endocytic Clathrin-Coated Vesicles by the ArfGAP Hrb” (Cell, 2008).

T1: Hrb(1-176) His6 (human, UniProt P52594-1 1-176)
T1 construct: human Hrb, residues 1-176; also called residues 1–176 of Hrb; source: E. coli BL21(DE3)/pLysS, purified (Ni-NTA-agarose); not shown: His6, C-terminal, kept
T1 sequence (looked up): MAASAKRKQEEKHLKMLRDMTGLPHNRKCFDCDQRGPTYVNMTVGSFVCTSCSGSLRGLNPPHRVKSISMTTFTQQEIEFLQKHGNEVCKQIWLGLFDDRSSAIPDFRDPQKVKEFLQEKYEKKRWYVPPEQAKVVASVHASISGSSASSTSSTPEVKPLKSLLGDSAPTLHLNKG

T2: Hrb(1-176) His6 L160S/L163S (human, UniProt P52594-1 1-176, L160S | L163S)
T2 construct: human Hrb, residues 1-176, with L160S and L163S; source: E. coli BL21(DE3)/pLysS, purified (Ni-NTA-agarose); not shown: His6, C-terminal, kept
T2 sequence (looked up): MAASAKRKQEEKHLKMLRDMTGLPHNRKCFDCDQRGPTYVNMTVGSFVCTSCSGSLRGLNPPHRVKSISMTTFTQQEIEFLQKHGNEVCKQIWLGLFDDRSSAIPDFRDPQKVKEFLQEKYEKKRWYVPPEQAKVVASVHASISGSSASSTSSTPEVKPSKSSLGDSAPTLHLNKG

T3: Hrb(1-176) His6 L163P/L164P (human, UniProt P52594-1 1-176, L163P | L164P)
T3 construct: human Hrb, residues 1-176, with L163P and L164P; source: E. coli BL21(DE3)/pLysS, purified (Ni-NTA-agarose); not shown: His6, C-terminal, kept
T3 sequence (looked up): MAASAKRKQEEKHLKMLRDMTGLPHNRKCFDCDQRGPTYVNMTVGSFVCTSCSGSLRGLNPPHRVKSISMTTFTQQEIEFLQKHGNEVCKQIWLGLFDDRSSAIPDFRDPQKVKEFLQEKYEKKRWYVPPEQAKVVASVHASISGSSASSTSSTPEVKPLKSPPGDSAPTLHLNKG

T4: Hrb(1-176) His6 L171S/L173S (human, UniProt P52594-1 1-176, L171S | L173S)
T4 construct: human Hrb, residues 1-176, with L171S and L173S; source: E. coli BL21(DE3)/pLysS, purified (Ni-NTA-agarose); not shown: His6, C-terminal, kept
T4 sequence (looked up): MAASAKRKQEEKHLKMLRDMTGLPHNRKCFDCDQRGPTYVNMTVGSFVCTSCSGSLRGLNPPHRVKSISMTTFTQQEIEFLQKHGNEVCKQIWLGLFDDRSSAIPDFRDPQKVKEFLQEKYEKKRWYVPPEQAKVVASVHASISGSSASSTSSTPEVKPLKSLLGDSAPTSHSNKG


Assays:
Test in all cases: ITC; VAMP7 longin domain (1.4 ml, 0.15-0.2 mM) in the cell, Hrb at 1.5-2 mM titrated in 30-40 injections of 4-8 μl; all GST tags removed
Settings in all cases: both partners purified
Hrb(1-176) His6 = target: T1, Hrb(1-176) His6
[1] = target: T2, Hrb(1-176) His6 L160S/L163S
[2] = target: T3, Hrb(1-176) His6 L163P/L164P
[3] = target: T4, Hrb(1-176) His6 L171S/L173S

Kd (Hrb(1-176) His6)	Kd [1]	Kd [2]	Kd [3]	Binder
> 300 µM	–	–	–	VAMP7 longin domain L43S/Y45S, GST tag removed (domain or fragment, mouse, UniProt P70280 1-120, looked up, VAMP7 longin domain with L43S and Y45S; limits as the parent GST-VAMP7 longin domain (mouse 1-120 by the antibody paragraph); Used in ITC; source: E. coli BL21(DE3)/pLysS, purified, GST removed with thrombin; not shown: GST, N-terminal, cleaved) MAILFAVVARGTTILAKHAWCGGNFLEVTEQILAKIPSENNKSTSSHGNYLFHYICQDRIVYLCITDDDFERSRAFSFLNEVKKRFQTTYGSRAQTALPYAMNSEFSSVLAAQLKHHSEN
10.5 µM	> 300 µM	> 300 µM	> 300 µM	VAMP7 longin domain, GST tag removed (domain or fragment, mouse, UniProt P70280 1-120, looked up, VAMP7 longin domain; GST-VAMP7 longin domain is described as mouse VAMP7 amino acids 1-120 in the antibody paragraph; also called VAMP7 LD; source: E. coli BL21(DE3)/pLysS, purified, GST removed with thrombin; not shown: GST, N-terminal, cleaved) MAILFAVVARGTTILAKHAWCGGNFLEVTEQILAKIPSENNKLTYSHGNYLFHYICQDRIVYLCITDDDFERSRAFSFLNEVKKRFQTTYGSRAQTALPYAMNSEFSSVLAAQLKHHSEN
